The target of one data set is T1, SAPK3 (Mus musculus, UniProt O08911).
T1 construct: His (N); made in house; host or cells: E. coli
T1 sequence (O08911 1-367): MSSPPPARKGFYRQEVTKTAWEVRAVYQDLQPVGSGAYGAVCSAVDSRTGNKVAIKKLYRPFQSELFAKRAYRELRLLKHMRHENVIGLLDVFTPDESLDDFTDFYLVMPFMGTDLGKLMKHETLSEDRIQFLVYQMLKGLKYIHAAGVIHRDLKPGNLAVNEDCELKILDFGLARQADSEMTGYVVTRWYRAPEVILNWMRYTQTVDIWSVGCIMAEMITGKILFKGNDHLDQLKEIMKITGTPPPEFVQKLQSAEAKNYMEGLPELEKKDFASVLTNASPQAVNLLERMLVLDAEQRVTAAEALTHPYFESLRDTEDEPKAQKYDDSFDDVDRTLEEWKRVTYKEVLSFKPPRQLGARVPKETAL
Kind of data set: Activation of MAP kinase by recombinant MAPK kinase in vitro, substrate phosphorylation by autoradiography. Format: biochemical. Particulars: 0.1 μg MAPK kinase, 0.5 μg His-SAPK3, 30° C. 30 minutes. The method, then:
(§1) 0.1 μg of a MAPK kinase (His-MKK7, GST-SEK1 and His-MKK6 were separately used) and 0.5 μg of a MAP kinase (His-MAPK, His-SAPK, His-p38 and His-SAPK3 were separately used), both prepared in item (1) above, were incubated with 10 μl of a solution containing 100 μM ATP, 20 mM MgCl2, 2 mM EGTA and 20 mM Tris-HCl (pH 7.5) at 30° C. for 30 minutes, to thereby activate the MAP kinase. Subsequently, 5 μl of a solution containing a substrate for the MAP kinase and 1 μCi of [γ-^32P] ATP (manufactured and sold by Amersham International, England) was added to the mixture, and further incubated at 20° C. for 20 minutes. As a substrate for the MAP kinase, 3 μg of myelin basic protein (MBP) was used for MAPK and SAPK3, 3 μg of GST-cJun (1-79) was used for SAPK, and 3 μg of ATF-2 was used for p38. The MBP used as the substrate was obtained by purifying Brain Acetone Powder (manufactured and sold by Sigma, USA), and ATF-2 was a kind gift of Dr. Suzanne J. Baker and Dr. Tom Curran (St. Jude Children's Research Hospital). After incubation, a sample was obtained from each incubated mixture and resolved on SDS-polyacrylamide gel electrophoresis. Then, the radioactivity of each of MBP, c-Jun and ATF-2 was detected by autoradiography.

In a further data set the target is T2, SAPK (Mus musculus, UniProt Q9WTU6).
T2 construct: His (N); made in house; host or cells: E. coli
The data set is described as above. Format: biochemical. The note with it: 0.1 μg MAPK kinase, 0.5 μg His-SAPK, 30° C. 30 minutes; substrate GST-cJun (1-79). The method, then: as §1

The target in the next data set is T3, p38 (Mus musculus, UniProt P47811).
T3 construct: His (N); made in house; host or cells: E. coli
The data set is described as above. Particulars: 0.1 μg MAPK kinase, 0.5 μg His-p38, 30° C. 30 minutes; substrate ATF-2. Format: biochemical. As for the experimental part:
as §1

Data set [1] in a line: Optimum pH and heat deactivation of MKK7. Format: physicochemical. As for the experimental part: In addition to MKK7, MKK6 and SEK1 were used as the MAPK kinase, and MAPK, SAPK, p38 and SAPK3 were used as the MAP kinase. A MAPK kinase gene and a MAP kinase gene were cotransfected to a cell in different combinations, and the activity of the MAP kinase in vivo was determined by measuring the amount of a substrate (for the transfected MAP kinase) phosphorylated by the cotransfected cells. […] From this experiment, it has become apparent that the optimum pH for MKK7 is in the range of from pH 7 to 8, and MKK7 is deactivated at 70° C. or higher.

The next data set deals with SAPK/JNK. Nature of the data set: Inhibition of TNF-α-induced SAPK activation by the dominant negative form of MKK7 in KB cells. The note with it: KB cells cotransfected with pSRα-HA-SAPKα and pSRα-MKK7KL; TNF-α 100 ng/ml, 15 minutes; sorbitol- and anisomycin-induced activation not suppressed. As for the experimental part:
KB cells were cotransfected with the vector pSRα-HA-SAPKα (0.5 μg) and either the vector pSRα or the vector pSRα-MKK7KL (1.5 μg) using Lipofectamine (manufactured and sold under the brand of GIBCO BRL, USA). Twenty-four hours after the transfection, TNF-α (100 ng/ml), sorbitol (0.5 M) and anisomycin (100 μg/ml) were individually used to stimulate the transfected cells for 15 minutes. Next, the cell extracts of the stimulated cells were individually prepared as follows. The cells were suspended in 0.7 M NaCl solution and washed once with ice-cold HEPES-buffered saline. Subsequently, the washed cells were homogenized in a buffer containing 20 mM Tris-HCl (pH 7.5), 2 mM EGTA, 25 mM β-glycerophosphate, 2 mM DTT, 1 mM vanadate, 1 mM PMSF and 1% aprotinin, wherein the buffer was used in an amount of 300 μl relative to cells obtained per plate (diameter: 100 mm). The resultant cell homogenate was centrifuged at 1000×g for 3 minutes, followed by a further centrifugation at 400,000×g for 20 minutes, thereby obtaining a supernatant. The obtained supernatant was used as the cell extract.
Each of the cell extracts was individually immunoprecipitated with anti-HA antibody (anti-hemagglutinin antibody) (12CA5), and the kinase activity of HA-SAPK in the immunoprecipitate was determined.

The source of these data is patent US6465618B1, “Mitogen activated protein kinase (MAPK) kinase” (Asahi Kasei Kabushikiki Kaisha, priority 1997, dated 2002).

T3 sequence (P47811 whole entry): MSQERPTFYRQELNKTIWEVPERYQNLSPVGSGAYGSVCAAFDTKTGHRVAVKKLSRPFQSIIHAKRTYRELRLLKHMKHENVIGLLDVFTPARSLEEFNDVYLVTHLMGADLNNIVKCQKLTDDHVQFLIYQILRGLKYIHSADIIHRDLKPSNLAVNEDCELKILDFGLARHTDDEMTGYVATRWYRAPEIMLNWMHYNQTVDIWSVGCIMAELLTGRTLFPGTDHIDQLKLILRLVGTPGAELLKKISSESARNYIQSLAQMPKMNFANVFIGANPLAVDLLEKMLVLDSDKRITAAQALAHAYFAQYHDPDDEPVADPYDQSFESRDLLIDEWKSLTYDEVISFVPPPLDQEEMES

B1: mouse MKK7: novel MAPK kinase derived from mouse brain, amino acid sequence SEQ ID NO: 4 (protein)
chain: MAASSLEQKLSRLEAKLKQENREARRRIDLNLDISPQRPRPIIVITLSPAPAPSQRAALQLPLANDGGSRSPSSESSPQHPTPPTRPRHMLGLPSTLFTPRSMESIEIDQKLQEIMKQTGYLTIGGQRYQAEINDLENLGEMGSGTCGQVWKMRFRKTGHIIAVKQMRRSGNKEENKRILMDLDVVLKSHDCPYIVQCFGTFITNTDVFIAMELMGTCAEKLKKRMQGPIPERILGKMTVAIVKALYYLKEKHGVIHRDVKPSNILLDERGQIKLCDFGISGRLVDSKAKTRSAGCAAYMAPERIDPPDPTKPDYDIRADVWSLGISLVELATGQFPYKNCKTDFEVLTKVLQEEPPLLPGHMGFSGDFQSFVKDCLTKDHRKRPKYNKLLEHSFIKHYEILEVDVASWFKDVMAKTESPRTSGVLSQHHLPFFSGSLEESPTSPPSPKSFPLSPAIPQAQAEWVSGR
As for B1, the “activation of SAPK3 (phosphorylation of MBP)” value (“activation of SAPK3” for short) with SAPK3 is “did not activate”. For the same molecule, the “activation of SAPK (phosphorylation of c-Jun)” value with SAPK is on record as “specifically activated”. Besides, the “activation of p38 (phosphorylation of ATF-2)” value (from here on “activation of p38”) with p38 was “did not activate”. In addition, in data set [1], the “optimum pH” value was 7 to 8 pH and the “temperature at which MKK7 is deactivated” value is not below 70 °C.

B2: MKK7KL: dominant negative form of mouse MKK7, 165th Lysine (K) substituted with leucine (L), SEQ ID NO: 10 (protein)
chain: MAASSLEQKLSRLEAKLKQENREARRRIDLNLDISPQRPRPIIVITLSPAPAPSQRAALQLPLANDGGSRSPSSESSPQHPTPPTRPRHMLGLPSTLFTPRSMESIEIDQKLQEIMKQTGYLTIGGQRYQAEINDLENLGEMGSGTCGQVWKMRFRKTGHIIAVLQMRRSGNKEENKRILMDLDVVLKSHDCPYIVQCFGTFITNTDVFIAMELMGTCAEKLKKRMQGPIPERILGKMTVAIVKALYYLKEKHGVIHRDVKPSNILLDERGQIKLCDFGISGRLVDSKAKTRSAGCAAYMAPERIDPPDPTKPDYDIRADVWSLGISLVELATGQFPYKNCKTDFEVLTKVLQEEPPLLPGHMGFSGDFQSFVKDCLTKDHRKRPKYNKLLEHSFIKHYEILEVDVASWFKDVMAKTESPRTSGVLSQHHLPFFSGSLEESPTSPPSPKSFPLSPAIPQAQAEWVSGR
As for B2, in the data set on SAPK/JNK, the “TNF-α-induced activation of SAPK/JNK in a cell expressing MKK7KL” value is given as “suppressed”.

B3: mouse SEK1: known MAPK kinase, mouse SEK1 expressed as GST-SEK1 (protein)
chain: MAAPSPSGGGGSGGGGGTPGPIGPPASGHPAVSSMQGKRKALKLNFANPPVKSTARFTLNPNTTGVQNPHIERLRTHSIESSGKLKISPEQHWDFTAEDLKDLGEIGRGAYGSVNKMVHKPSGQIMAVKRIRSTVDEKEQKQLLMDLDVVMRSSDCPYIVQFYGALFREGDCWICMELMSTSFDKFYKYVYSVLDDVIPEEILGKITLATVKALNHLKENLKIIHRDIKPSNILLDRSGNIKLCDFGISGQLVDSIAKTRDAGCRPYMAPERIDPSASRQGYDVRSDVWSLGITLYELATGRFPYPKWNSVFDQLTQVVKGDPPQLSNSEEREFSPSFINFVNLCLTKDESKRPKYKELLKHPFILMYEERTVEVACYVCKILDQMPATPSSPMYVD
modifications: left off: a dimerising Fc or GST
In the case of B3, the “activation of SAPK3” value in the data set with SAPK3 is “activated”. Moreover, the “activation of SAPK (phosphorylation of c-Jun)” value with SAPK is on record as “activated”. Further, the “activation of p38” value with p38 is “activated”.

B4: MKK6: known MAPK kinase, human MKK6 expressed as His-MKK6 (protein)
chain: MSQSKGKKRNPGLKIPKEAFEQPQTSSTPPRDLDSKACISIGNQNFEVKADDLEPIMELGRGAYGVVEKMRHVPSGQIMAVKRIRATVNSQEQKRLLMDLDISMRTVDCPFTVTFYGALFREGDVWICMELMDTSLDKFYKQVIDKGQTIPEDILGKIAVSIVKALEHLHSKLSVIHRDVKPSNVLINALGQVKMCDFGISGYLVDSVAKTIDAGCKPYMAPERINPELNQKGYSVKSDIWSLGITMIELAILRFPYDSWGTPFQQLKQVVEEPSPQLPADKFSAEFVDFTSQCLKKNSKERPTYPELMQHPFFTLHESKGTDVASFVKLILGD
modifications: left off: small tags and cut ends
As for B4, in the data set with SAPK3, the “activation of SAPK3” value is listed as “activated”. Also, the “activation of SAPK (phosphorylation of c-Jun)” value in the data set with SAPK was “did not activate”. The “activation of p38” value in the data set with p38 is recorded as “activated”.
